# In IntAct's records for PubMed 26188084:
# B1: Serine/threonine-protein kinase PLK4 (Homo sapiens), O00444 (parent)
# chain: MATCIGEKIEDFKVGNLLGKGSFAGVYRAESIHTGLEVAIKMIDKKAMYKAGMVQRVQNEVKIHCQLKHPSILELYNYFEDSNYVYLVLEMCHNGEMNRYLKNRVKPFSENEARHFMHQIITGMLYLHSHGILHRDLTLSNLLLTRNMNIKIADFGLATQLKMPHEKHYTLCGTPNYISPEIATRSAHGLESDVWSLGCMFYTLLIGRPPFDTDTVKNTLNKVVLADYEMPSFLSIEAKDLIHQLLRRNPADRLSLSSVLDHPFMSRNSSTKSKDLGTVEDSIDSGHATISTAITASSSTSISGSLFDKRRLLIGQPLPNKMTVFPKNKSSTDFSSSGDGNSFYTQWGNQETSNSGRGRVIQDAEERPHSRYLRRAYSSDRSGTSNSQSQAKTYTMERCHSAEMLSVSKRSGGGENEERYSPTDNNANIFNFFKEKTSSSSGSFERPDNNQALSNHLCPGKTPFPFADPTPQTETVQQWFGNLQINAHLRKTTEYDSISPNRDFQGHPDLQKDTSKNAWTDTKVKKNSDASDNAHSVKQQNTMKYMTALHSKPEIIQQECVFGSDPLSEQSKTRGMEPPWGYQNRTLRSITSPLVAHRLKPIRQKTKKAVVSILDSEEVCVELVKEYASQEYVKEVLQISSDGNTITIYYPNGGRGFPLADRPPSPTDNISRYSFDNLPEKYWRKYQYASRFVQLVRSKSPKITYFTRYAKCILMENSPGADFEVWFYDGVKIHKTEDFIQVIEKTGKSYTLKSESEVNSLKEEIKMYMDHANEGHRICLALESIISEEERKTRSAPFFPIIIGRKPGSTSSPKALSPPPSVDSNYPTRERASFNRMVMHSAASPTQAPILNPSMVTNEGLGLTTTASGTDISSNSLKDCLPKSAQLLKSVFVKNVGWATQLTSGAVWVQFNDGSQLVVQAGVSSISYTSPNGQTTRYGENEKLPDYIKQKLQCLSSILLMFSNPTPNFH
# partner: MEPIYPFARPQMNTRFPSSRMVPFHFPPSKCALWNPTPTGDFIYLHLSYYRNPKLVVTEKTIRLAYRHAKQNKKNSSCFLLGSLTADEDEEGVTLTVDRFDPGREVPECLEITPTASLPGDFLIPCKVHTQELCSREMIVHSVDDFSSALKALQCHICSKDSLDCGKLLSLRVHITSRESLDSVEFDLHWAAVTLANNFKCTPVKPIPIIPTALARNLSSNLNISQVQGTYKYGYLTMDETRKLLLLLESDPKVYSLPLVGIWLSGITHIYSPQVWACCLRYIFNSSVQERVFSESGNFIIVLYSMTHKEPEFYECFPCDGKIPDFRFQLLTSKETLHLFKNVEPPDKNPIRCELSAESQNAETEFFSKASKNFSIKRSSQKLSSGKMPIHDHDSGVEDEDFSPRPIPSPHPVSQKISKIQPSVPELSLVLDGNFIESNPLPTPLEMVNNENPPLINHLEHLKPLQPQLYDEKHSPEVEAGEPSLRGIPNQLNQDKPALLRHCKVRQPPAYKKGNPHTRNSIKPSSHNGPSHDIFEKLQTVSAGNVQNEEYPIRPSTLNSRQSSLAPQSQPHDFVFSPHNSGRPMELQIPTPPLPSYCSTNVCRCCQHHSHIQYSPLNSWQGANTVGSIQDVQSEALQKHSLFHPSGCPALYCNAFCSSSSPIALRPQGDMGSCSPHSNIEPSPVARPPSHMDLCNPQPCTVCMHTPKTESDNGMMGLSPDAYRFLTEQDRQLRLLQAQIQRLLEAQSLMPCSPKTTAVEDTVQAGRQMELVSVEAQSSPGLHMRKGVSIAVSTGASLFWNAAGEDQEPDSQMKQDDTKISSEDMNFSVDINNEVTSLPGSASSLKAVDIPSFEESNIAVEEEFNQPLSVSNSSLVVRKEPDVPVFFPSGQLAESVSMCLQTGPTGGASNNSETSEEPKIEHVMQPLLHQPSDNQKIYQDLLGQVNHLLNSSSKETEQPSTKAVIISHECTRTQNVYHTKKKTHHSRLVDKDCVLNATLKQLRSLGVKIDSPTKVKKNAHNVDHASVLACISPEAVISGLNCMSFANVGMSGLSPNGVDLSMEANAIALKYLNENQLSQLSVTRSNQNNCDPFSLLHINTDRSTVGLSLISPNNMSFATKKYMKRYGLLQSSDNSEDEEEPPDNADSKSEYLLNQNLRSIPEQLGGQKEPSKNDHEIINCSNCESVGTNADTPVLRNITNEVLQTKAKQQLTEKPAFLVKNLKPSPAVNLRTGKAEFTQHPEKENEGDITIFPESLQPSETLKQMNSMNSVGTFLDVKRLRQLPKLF
# B2: SCL-interrupting locus protein (Homo sapiens), Q15468 (parent)
# chain: B1 partner
# partner: B1 chain
# Variants of: B1
# Conditions: with stil_human STIL
row,Variant,effect of a mutation on the interaction
1,S285A;T289A,with no effect

# Variants of: B2
# Conditions: with plk4_human PLK4, O00444
row,Variant,effect of a mutation on the interaction
1,Q737K;Q739E,decreasing interaction strength
2,L733D;L736E;I740K;L743D,with no effect
3,L733D;L743D,decreasing interaction strength
4,L733D;L736E;L743D,with no effect
5,L733D;I740K;L743D,with no effect
6,L733Y;L743Y,with no effect
7,L733E;I740E;L743E,with no effect
